Measurements taken from patent US20260108607A1 (BEIJING DCTY BIOTECH, published 2026).

The binders below were run against T1, EGFRvIII target antigen (SPR ligand) (UniProt P00533 25-645, limits assumed) (assay: SPR; antibody as analyte).
T1 construct: also called EGFRvIII antigen

Binder | Kd | koff | kon
84C3G8H7-chimeric-scFv (20-2-28) (scFv, V domains shown) VH: EVQLQQSGAELVRPGALVKLSCKASGFNIKDYYMHWVKQRPEQGLEWIGWIDPENGNTIYDPKFQGKASITADTSSNTAYLQLSSLTSEDTAVYYCARGWFAYWGQGTLVTVSA VL: not shown | 0.059 µM | 0.00883 s⁻¹ | 150000 M⁻¹ s⁻¹
humanized antibody 28-H3 (84C3G8H7-VH3 + VL1) (scFv, the format in the SPR assay is not clearly stated) scFv: QVQLVQSGAEVKKPGASVKVSCKASGFNIKDYYMHWVRQAPGQRLEWIGWIDPENGNTIYDPKFQGRATITADTSASTAYMELSSLRSEDTAVYYCARGWFAYWGQGTLVTVSSGGGGSGGGGSGGGGSGGGGSDIVMTQSPDSLAVSLGERATINCKSSQSLLNSSNQKNHLAWYQQKPGQPPKLLIYFASTRASGVPDRFSGSGSGTDFTLTISSLQAEDVAVYYCQQHYSTPLTFGGGTKLELK | 0.167 µM | 0.0221 s⁻¹ | 132000 M⁻¹ s⁻¹
humanized antibody 28-H4 (84C3G8H7-VH3 + VL2) (scFv, the format in the SPR assay is not clearly stated) scFv: QVQLVQSGAEVKKPGASVKVSCKASGFNIKDYYMHWVRQAPGQRLEWIGWIDPENGNTIYDPKFQGRATITADTSASTAYMELSSLRSEDTAVYYCARGWFAYWGQGTLVTVSSGGGGSGGGGSGGGGSGGGGSDIVMTQSPDSLAVSLGERATINCKSSQSLLNSSNQKNHLAWYQQKPGQPPKLLVYFASTRASGVPDRFSGSGSGTDFTLTISSLQAEDVAVYFCQQHYSTPLTFGGGTKLELK | 0.154 µM | 0.0206 s⁻¹ | 134000 M⁻¹ s⁻¹
humanized antibody 28-H5 (84C3G8H7-VH4 + VL1) (scFv, the format in the SPR assay is not clearly stated) scFv: QVQLVQSGAEVKKPGASVKVSCKASGFNIKDYYMHWVKQAPGQRLEWIGWIDPENGNTIYDPKFQGRATITADTSANTAYMELSSLRSEDTAVYYCARGWFAYWGQGTLVTVSSGGGGSGGGGSGGGGSGGGGSDIVMTQSPDSLAVSLGERATINCKSSQSLLNSSNQKNHLAWYQQKPGQPPKLLIYFASTRASGVPDRFSGSGSGTDFTLTISSLQAEDVAVYYCQQHYSTPLTFGGGTKLELK | 0.0803 µM | 0.00891 s⁻¹ | 111000 M⁻¹ s⁻¹
humanized antibody 28-H7 (84C3G8H7-VH3 + VL1(PTM)) (scFv, the format in the SPR assay is not clearly stated) scFv: QVQLVQSGAEVKKPGASVKVSCKASGFNIKDYYMHWVRQAPGQRLEWIGWIDPENGNTIYDPKFQGRATITADTSASTAYMELSSLRSEDTAVYYCARGWFAYWGQGTLVTVSSGGGGSGGGGSGGGGSGGGGSDIVMTQSPDSLAVSLGERATINCKSSQSLLNSSNQKNHLAWYQQKPGQPPKLLIYFASTRGSGVPDRFSGSGSGTDFTLTISSLQAEDVAVYYCQQHYSTPLTFGGGTKLELK | 0.0772 µM | 0.0112 s⁻¹ | 146000 M⁻¹ s⁻¹
humanized antibody 28-H8 (84C3G8H7-VH3 + VL2(PTM)) (scFv, the format in the SPR assay is not clearly stated) scFv: QVQLVQSGAEVKKPGASVKVSCKASGFNIKDYYMHWVRQAPGQRLEWIGWIDPENGNTIYDPKFQGRATITADTSASTAYMELSSLRSEDTAVYYCARGWFAYWGQGTLVTVSSGGGGSGGGGSGGGGSGGGGSDIVMTQSPDSLAVSLGERATINCKSSQSLLNSSNQKNHLAWYQQKPGQPPKLLVYFASTRGSGVPDRFSGSGSGTDFTLTISSLQAEDVAVYFCQQHYSTPLTFGGGTKLELK | 0.0726 µM | 0.0103 s⁻¹ | 142000 M⁻¹ s⁻¹
humanized antibody 28-H9 (84C3G8H7-VH4 + VL1(PTM)) (scFv, the format in the SPR assay is not clearly stated) scFv: QVQLVQSGAEVKKPGASVKVSCKASGFNIKDYYMHWVKQAPGQRLEWIGWIDPENGNTIYDPKFQGRATITADTSANTAYMELSSLRSEDTAVYYCARGWFAYWGQGTLVTVSSGGGGSGGGGSGGGGSGGGGSDIVMTQSPDSLAVSLGERATINCKSSQSLLNSSNQKNHLAWYQQKPGQPPKLLIYFASTRGSGVPDRFSGSGSGTDFTLTISSLQAEDVAVYYCQQHYSTPLTFGGGTKLELK | 0.0475 µM | 0.00665 s⁻¹ | 140000 M⁻¹ s⁻¹
